In test [1] the target is T1, human complement factor Bb (human, UniProt P00751 260-764).
T1 construct: Bought from Complement Technology; Biotinylated with EZ-Link Sulfo-NHS-LC-LC-Biotin when captured in BLI; also called FBb
Kind of test: BLI dual target engagement: one target captured, then protein, then the other target. The source says:
(§1) Bio-layer interferometry (BLI) was used to assess the recombinant proteins' target engagement to and binding affinity for complement C1s enzyme (active C1s or “C1s” herein) and factor Bb (Bb) (Complement Technology, Tyler, TX, USA). C1s and Bb were biotinylated with EZ-Link™ Sulfo-NHS-LC-LC-Biotin (Thermo Fisher, Waltham, MA, USA) according to manufacturer instructions. Biotinylated C1s or Bb was loaded on Octet® Streptavidin (SA) Biosensors (Sartorius, Göttingen, Germany), followed by a concentration range of purified proteins. To assess dual target engagement, biotinylated active C1s or Bb was loaded onto sensors, followed by purified proteins (“first association phase”), followed by the non-captured complement target (Bb or active C1s, non-biotinylated; “second association phase”). The assays were performed at 30° C. using PBS with 0.1% Tween 20 as a diluent (FIG. 3).

Test [2] concerns the target T2, human complement C1s enzyme (activated C1s) (human, UniProt P09871 16-437; P09871 438-688).
T2 construct: Bought from Complement Technology; Disulfide-linked heterodimer; Biotinylated with EZ-Link Sulfo-NHS-LC-LC-Biotin when captured in BLI; also called active C1s; aC1s
T2 sequence 1: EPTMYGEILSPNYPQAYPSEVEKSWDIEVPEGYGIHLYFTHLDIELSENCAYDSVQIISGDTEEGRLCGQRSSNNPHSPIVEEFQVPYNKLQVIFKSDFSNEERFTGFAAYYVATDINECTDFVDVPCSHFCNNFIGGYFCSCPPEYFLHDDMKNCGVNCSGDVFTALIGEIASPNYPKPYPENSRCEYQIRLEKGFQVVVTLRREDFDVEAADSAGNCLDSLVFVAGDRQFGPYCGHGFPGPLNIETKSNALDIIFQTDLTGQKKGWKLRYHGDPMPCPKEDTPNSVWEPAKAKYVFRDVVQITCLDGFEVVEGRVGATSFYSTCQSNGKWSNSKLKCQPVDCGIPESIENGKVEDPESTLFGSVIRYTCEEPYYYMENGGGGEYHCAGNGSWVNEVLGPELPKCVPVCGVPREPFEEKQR
T2 sequence 2: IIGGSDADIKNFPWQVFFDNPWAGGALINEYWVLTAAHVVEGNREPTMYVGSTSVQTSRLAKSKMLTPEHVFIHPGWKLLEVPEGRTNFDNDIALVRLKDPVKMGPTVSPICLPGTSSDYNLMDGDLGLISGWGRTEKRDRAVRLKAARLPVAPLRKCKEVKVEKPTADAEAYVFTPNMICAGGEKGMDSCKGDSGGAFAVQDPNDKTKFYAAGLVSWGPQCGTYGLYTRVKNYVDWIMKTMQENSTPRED
The test is described as above.
Excerpt: as §1

Test [3] has as its target T1, human complement factor Bb. Description: cell-based or functional assay.
Test [4] concerns the target T2, human complement C1s enzyme (activated …). Description: cell-based or functional assay.
In test [5] the target is T1, human complement factor Bb. Description: BLI (Octet), biotinylated target on streptavidin sensor.
Excerpt: as §1

The target in test [6] is T2, human complement C1s enzyme (activated …). Described as above.
Excerpt: as §1

In test [7] the target is T1, human complement factor Bb. Description: cell-based or functional assay. This is another data set of the same source.
The target of test [8] is T2, human complement C1s enzyme (activated …). Kind of test: cell-based or functional assay. This is another data set of the same source.
In test [9] the target is T1, human complement factor Bb. Kind of test: cell-based or functional assay. This is another data set of the same source.
The target of test [10] is T2, human complement C1s enzyme (activated …). Kind of test: cell-based or functional assay. The source holds these as a separate data set.
Test [11] has as its target T1, human complement factor Bb. Description: BLI (Octet), biotinylated target on streptavidin sensor; protein purified to >98%.
Excerpt: as §1

Test [12] deals with T2, human complement C1s enzyme (activated …). Described as above.
Excerpt: as §1

The target in test [13] is T1, human complement factor Bb. Kind of test: cell-based or functional assay. The source holds these as a separate data set.
In test [14] the target is T2, human complement C1s enzyme (activated …). Description: cell-based or functional assay. The source holds these as a separate data set.
Test [15] has as its target T1, human complement factor Bb. Description: BLI (Octet), biotinylated target on streptavidin sensor; partially purified protein.
Excerpt: as §1
(§2) The third expression construct, construct #9 (FIGS. 2B and 21), is composed of a bidirectional minCBA promoter driving expression of separate transcripts encoding human codon-optimized αBb scFab or αC1s scFab [αC1s scFab+αBb scFab], each followed by a bGH poly (A) signal.

Test [16] concerns the target T2, human complement C1s enzyme (activated …). The test is described as above.
Excerpt: as §1, §2

Experimental findings from US20240401082A1 (Sanofi, published 2024) are described below.

T1 sequence (P00751 260-764): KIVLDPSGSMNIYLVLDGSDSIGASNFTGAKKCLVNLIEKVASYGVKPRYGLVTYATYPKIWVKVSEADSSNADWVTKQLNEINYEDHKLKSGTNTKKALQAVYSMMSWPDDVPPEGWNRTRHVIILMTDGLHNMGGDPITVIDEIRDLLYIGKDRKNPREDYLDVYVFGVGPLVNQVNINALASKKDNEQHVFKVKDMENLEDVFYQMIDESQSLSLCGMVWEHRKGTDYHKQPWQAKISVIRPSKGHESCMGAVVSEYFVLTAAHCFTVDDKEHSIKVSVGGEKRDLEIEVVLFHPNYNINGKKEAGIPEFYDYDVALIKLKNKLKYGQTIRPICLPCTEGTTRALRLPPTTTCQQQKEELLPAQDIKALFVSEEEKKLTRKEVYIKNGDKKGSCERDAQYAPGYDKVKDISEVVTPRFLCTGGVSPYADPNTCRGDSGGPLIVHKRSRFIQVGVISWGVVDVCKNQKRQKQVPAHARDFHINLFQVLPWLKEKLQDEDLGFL

B1: construct #17: αC1s F2A Fab-(G4S)3-αBb scFab (bispecific antibody)
light: DIVLTQSPDSLAVSLGERATISCKASQSVDYDGDSYMNWYQQKPGQPPKILIYDASNLESGIPARFSGSGSGTDFTLTISSLEPEDFAIYYCQQSNEDPWTFGGGTKVEIKRTVAAPSVFIFPPSDEQLKSGTASVVCLLNNFYPREAKVQWKVDNALQSGNSQESVTEQDSKDSTYSLSSTLTLSKADYEKHKVYACEVTHQGLSSPVTKSFNRGEC
chain: QVQLVQSGAEVKKPGASVKLSCTASGFNIKDDYIHWVKQAPGQGLEWIGRIDPADGHTKYAPKFQVKVTITADTSTSTAYLELSSLRSEDTAVYYCARYGYGREVFDYWGQGTTVTVSSASTKGPSVFPLAPCSRSTSESTAALGCLVKDYFPEPVTVSWNSGALTSGVHTFPAVLQSSGLYSLSSVVTVPSSSLGTKTYTCNVDHKPSNTKVDKRVGGGGSGGGGSGGGGSDIQMTQSPSTLSASVGDRVTITCKASQDVGTAVAWYQQKPGKAPKLLIYWASTRHTGVPDRFSGSGSGTDFTLTISSLQAEDFAVYFCHQHSSNPLTFGQGTKLEIKRTVAAPSVFIFPPSDEQLKSGTASVVCLLNNFYPREAKVQWKVDNALQSGNSQESVTEQDSKDSTYSLSSTLTLSKADYEKHKVYACEVTHQGLSSPVTKSFNRGECGGGGSGGGGSGGGGSGGGGSGGGGSGGGGSGGGGSEVQLVESGGGLVKPGGSLRLSCAASGFTFSNYAMSWVRQAPGKRLEWVATISNRGSYTYYPDSVKGRFTISRDNAKNSLYLQMNSLRAEDTALYYCARERPMDYWGQGTLVTVSSASTKGPSVFPLAPCSRSTSESTAALGCLVKDYFPEPVTVSWNSGALTSGVHTFPAVLQSSGLYSLSSVVTVPSSSLGTKTYTCNVDHKPSNTKVDKRV
For the molecule B1, the binding result in test [1] and in [2] was “binds” throughout.

B2: construct #18: αC1s GT2A Fab-(G4S)3-αBb scFab (bispecific antibody)
light: DIVLTQSPDSLAVSLGERATISCKASQSVDYDGDSYMNWYQQKPGQPPKILIYDASNLESGIPARFSGSGSGTDFTLTISSLEPEDFAIYYCQQSNEDPWTFGGGTKVEIKRTVAAPSVFIFPPSDEQLKSGTASVVCLLNNFYPREAKVQWKVDNALQSGNSQESVTEQDSKDSTYSLSSTLTLSKADYEKHKVYACEVTHQGLSSPVTKSFNRGEC
chain: QVQLVQSGAEVKKPGASVKLSCTASGFNIKDDYIHWVKQAPGQGLEWIGRIDPADGHTKYAPKFQVKVTITADTSTSTAYLELSSLRSEDTAVYYCARYGYGREVFDYWGQGTTVTVSSASTKGPSVFPLAPCSRSTSESTAALGCLVKDYFPEPVTVSWNSGALTSGVHTFPAVLQSSGLYSLSSVVTVPSSSLGTKTYTCNVDHKPSNTKVDKRVGGGGSGGGGSGGGGSDIQMTQSPSTLSASVGDRVTITCKASQDVGTAVAWYQQKPGKAPKLLIYWASTRHTGVPDRFSGSGSGTDFTLTISSLQAEDFAVYFCHQHSSNPLTFGQGTKLEIKRTVAAPSVFIFPPSDEQLKSGTASVVCLLNNFYPREAKVQWKVDNALQSGNSQESVTEQDSKDSTYSLSSTLTLSKADYEKHKVYACEVTHQGLSSPVTKSFNRGECGGGGSGGGGSGGGGSGGGGSGGGGSGGGGSGGGGSEVQLVESGGGLVKPGGSLRLSCAASGFTFSNYAMSWVRQAPGKRLEWVATISNRGSYTYYPDSVKGRFTISRDNAKNSLYLQMNSLRAEDTALYYCARERPMDYWGQGTLVTVSSASTKGPSVFPLAPCSRSTSESTAALGCLVKDYFPEPVTVSWNSGALTSGVHTFPAVLQSSGLYSLSSVVTVPSSSLGTKTYTCNVDHKPSNTKVDKRV
B2: the binding result in [1] and in [2] was “binds” each time.

B3: construct #12: αBb scFab-(G4S)3-αC1s scFab-CM (bispecific antibody)
chain: DIQMTQSPSTLSASVGDRVTITCKASQDVGTAVAWYQKKPGKAPKLLIYWASTRHTGVPDRFSGSGSGTDFTLTISSLQAEDFAVYFCHQHSSNPLTFGQGTKLEIKRTVAAPAVFIFPPSDEQLKSGTASVVCLLKNFYPREAKVQWKVDNALQSGNSQESVTEQDSKDSTYSLSSTLTLSKADYEKHKVYACEVTHQGLSSPVTKSFNRGECGGGGSGGGGSGGGGSGGGGSGGGGSGGGGSGGGGSEVQLVESGGGLVKPGGSLRLSCAASGFTFSNYAMSWVREAPGKRLEWVATISNRGSYTYYPDSVKGRFTISRDNAKNSLYLQMNSLRAEDTALYYCARERPMDYWGQGTLVTVSSASTKGPSVFPLAPCSRSTSESTAALGCLVKDYFPEPVTVSWNSGALTSGVHTFPAVLQSSGLYSLSSVVEVPSSSLGTKTYTCNVDHKPSNTKVDKRVGGGGGSGGGGSGGGGSDIVLTQSPDSLAVSLGERATISCKASQSVDYDGDSYMNWYQEKPGQPPKILIYDASNLESGIPARFSGSGSGTDFTLTISSLEPEDFAIYYCQQSNEDPWTFGGGTKVEIKRTVAAPSVFIFPPSDEQLKSGTASVVCLLNNFYPREAKVQWKVDNALQSGNSQESVTEQDSKDSTYSLSSTLTLSKADYEKHKVYACEVTHQGLSSPVTKSFNRGECGGGGSGGGGSGGGGSGGGGSGGGGSGGGGSGGGGSQVQLVQSGAEVKKPGASVKLSCTASGFNIKDDYIHWVKKAPGQGLEWIGRIDPADGHTKYAPKFQVKVTITADTSTSTAYLELSSLRSEDTAVYYCARYGYGREVFDYWGQGTTVTVSSASTKGPSVFPLAPCSRSTSESTAALGCLVKDYFPEPVTVSWNSGALTSGVHTFPAVLQSSGLYSLSSVVTVPSSSLGTKTYTCNVDHKPSNTKVDKRV
notes: Residues 1-20 were left out as the signal peptide, which is marked by boldface only
For B3, the “IC50 AP Wieslab EIA” value in [3] is 428 nM. Further, in test [4], the “IC50 CP Wieslab EIA” value stood at 10.4 nM. The Kd worked out at 6.6 nM in test [5]; 3.6 nM in test [6]; 1.5 nM in test [11]; 5.4 nM in test [12]; 6.6 nM in test [15]; 3.6 nM in test [16]. The off-rate (koff) stood at 0.00055 s⁻¹ in test [5] and 0.00065 s⁻¹ in test [6]. Further, the values for the on-rate constant (kon) in [5] and in test [6] were 80000 M⁻¹ s⁻¹ and 180000 M⁻¹ s⁻¹, respectively. Besides, the “IC50 AP (Wieslab)” value in test [7] came to 702 nM. Moreover, in [8], the “IC50 CP (Wieslab)” value is 84.4 nM. The “AP IC50 (Wieslab)” value in test [9] is 702 nM. In addition, in [10], the “CP IC50 (Wieslab)” value was 84.4 nM. The “Wieslab AP IC50, fold of purified anti-Bb Fab” value in [13] was about 7 fold. Also, in [14], the “Wieslab CP IC50, fold of purified anti-C1s Fab” value is about 14 fold.
